Data as given in patent publication US20170051281A1 (TRUSTEES OF COLUMBIA UNIVERSITY IN THE CITY OF NEW YORK, published 2017).

Biological target: T1, Centromere protein F (CENPF) (human, UniProt P49454 1-3111, limits assumed)
T1 construct: also called CENF; PRO 1779
Test: co-immunoprecipitation

T1 sequence (P49454 1-3111 limits assumed): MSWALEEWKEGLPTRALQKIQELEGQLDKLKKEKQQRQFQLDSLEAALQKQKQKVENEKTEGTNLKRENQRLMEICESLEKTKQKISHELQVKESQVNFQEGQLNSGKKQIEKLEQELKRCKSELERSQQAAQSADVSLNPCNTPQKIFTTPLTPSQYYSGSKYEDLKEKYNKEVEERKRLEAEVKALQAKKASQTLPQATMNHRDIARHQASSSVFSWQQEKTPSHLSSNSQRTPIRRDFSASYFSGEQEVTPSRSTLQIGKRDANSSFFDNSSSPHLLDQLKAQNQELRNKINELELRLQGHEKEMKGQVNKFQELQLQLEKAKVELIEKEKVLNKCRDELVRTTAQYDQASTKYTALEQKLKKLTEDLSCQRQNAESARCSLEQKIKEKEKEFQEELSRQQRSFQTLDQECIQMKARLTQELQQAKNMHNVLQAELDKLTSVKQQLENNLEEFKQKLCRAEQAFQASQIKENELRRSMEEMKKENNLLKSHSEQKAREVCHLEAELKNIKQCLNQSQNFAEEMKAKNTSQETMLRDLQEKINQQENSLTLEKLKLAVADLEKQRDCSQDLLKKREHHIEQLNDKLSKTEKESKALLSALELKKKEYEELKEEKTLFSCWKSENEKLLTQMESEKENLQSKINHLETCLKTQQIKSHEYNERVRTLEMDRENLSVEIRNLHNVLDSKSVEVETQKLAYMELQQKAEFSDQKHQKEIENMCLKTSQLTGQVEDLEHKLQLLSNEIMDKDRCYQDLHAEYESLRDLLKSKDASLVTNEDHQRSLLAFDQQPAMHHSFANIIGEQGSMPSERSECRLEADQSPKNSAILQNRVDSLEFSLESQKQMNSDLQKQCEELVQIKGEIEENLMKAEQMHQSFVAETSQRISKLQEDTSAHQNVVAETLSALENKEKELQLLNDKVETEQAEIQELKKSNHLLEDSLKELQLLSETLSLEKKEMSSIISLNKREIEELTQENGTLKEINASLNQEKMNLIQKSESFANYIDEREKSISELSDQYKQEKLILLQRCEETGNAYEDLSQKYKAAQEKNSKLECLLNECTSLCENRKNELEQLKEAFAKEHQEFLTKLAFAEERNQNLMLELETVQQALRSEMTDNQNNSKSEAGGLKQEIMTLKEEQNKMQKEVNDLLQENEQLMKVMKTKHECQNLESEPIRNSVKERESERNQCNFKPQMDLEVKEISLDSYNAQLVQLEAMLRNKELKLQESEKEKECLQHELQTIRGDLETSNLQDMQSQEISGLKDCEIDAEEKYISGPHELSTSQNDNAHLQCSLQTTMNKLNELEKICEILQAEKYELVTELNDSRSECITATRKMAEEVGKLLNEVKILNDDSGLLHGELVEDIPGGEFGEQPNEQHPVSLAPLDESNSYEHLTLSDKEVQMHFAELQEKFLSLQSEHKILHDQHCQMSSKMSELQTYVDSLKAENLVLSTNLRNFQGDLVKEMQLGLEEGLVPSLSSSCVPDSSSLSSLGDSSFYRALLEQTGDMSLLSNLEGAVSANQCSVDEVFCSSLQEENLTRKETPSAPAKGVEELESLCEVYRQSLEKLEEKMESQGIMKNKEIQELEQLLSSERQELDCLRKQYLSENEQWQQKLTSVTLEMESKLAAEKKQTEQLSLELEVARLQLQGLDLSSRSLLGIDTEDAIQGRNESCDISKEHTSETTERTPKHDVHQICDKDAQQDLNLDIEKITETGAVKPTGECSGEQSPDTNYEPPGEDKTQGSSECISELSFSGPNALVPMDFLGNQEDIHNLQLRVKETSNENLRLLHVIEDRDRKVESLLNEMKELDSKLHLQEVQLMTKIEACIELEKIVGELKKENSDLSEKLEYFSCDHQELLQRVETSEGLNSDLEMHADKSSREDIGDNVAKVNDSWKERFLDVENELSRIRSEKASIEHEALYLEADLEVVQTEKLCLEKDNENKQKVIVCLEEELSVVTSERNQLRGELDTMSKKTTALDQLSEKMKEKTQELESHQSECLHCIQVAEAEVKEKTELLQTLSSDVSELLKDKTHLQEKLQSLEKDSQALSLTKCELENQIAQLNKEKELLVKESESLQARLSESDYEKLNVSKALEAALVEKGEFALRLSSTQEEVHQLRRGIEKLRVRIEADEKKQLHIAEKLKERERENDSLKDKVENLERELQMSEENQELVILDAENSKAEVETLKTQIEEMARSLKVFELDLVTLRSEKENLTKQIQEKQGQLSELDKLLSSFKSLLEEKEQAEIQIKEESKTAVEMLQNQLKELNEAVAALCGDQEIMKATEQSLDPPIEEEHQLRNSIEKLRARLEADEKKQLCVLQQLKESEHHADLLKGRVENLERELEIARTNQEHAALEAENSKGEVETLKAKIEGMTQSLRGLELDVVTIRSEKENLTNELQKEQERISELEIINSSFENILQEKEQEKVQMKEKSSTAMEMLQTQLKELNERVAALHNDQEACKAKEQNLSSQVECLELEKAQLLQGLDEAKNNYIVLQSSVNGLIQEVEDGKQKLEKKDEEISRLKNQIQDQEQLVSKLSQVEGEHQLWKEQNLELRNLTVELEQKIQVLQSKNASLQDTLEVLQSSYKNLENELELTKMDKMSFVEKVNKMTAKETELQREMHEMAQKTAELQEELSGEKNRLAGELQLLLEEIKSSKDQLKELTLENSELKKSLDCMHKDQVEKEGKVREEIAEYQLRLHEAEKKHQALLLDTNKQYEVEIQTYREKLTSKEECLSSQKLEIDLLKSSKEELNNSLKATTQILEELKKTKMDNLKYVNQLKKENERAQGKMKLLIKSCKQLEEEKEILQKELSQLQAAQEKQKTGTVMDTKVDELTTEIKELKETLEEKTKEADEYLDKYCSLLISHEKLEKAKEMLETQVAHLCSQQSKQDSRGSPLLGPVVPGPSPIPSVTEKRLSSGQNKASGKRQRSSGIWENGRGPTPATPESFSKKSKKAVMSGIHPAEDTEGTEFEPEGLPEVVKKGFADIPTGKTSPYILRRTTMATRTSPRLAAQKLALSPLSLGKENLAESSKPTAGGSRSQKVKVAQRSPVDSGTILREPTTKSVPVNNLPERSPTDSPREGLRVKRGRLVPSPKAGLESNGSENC

B1: Forkhead box protein M1 (FOXM1) (other)
chain: MKTSPRRPLILKRRRLPLPVQNAPSETSEEEPKRSPAQQESNQAEASKEVAESNSCKFPAGIKIINHPTMPNTQVVAIPNNANIHSIITALTAKGKESGSSGPNKFILISCGGAPTQPPGLRPQTQTSYDAKRTEVTLETLGPKPAARDVNLPRPPGALCEQKRETCDGEAAGCTINNSLSNIQWLRKMSSDGLGSRSIKQEMEEKENCHLEQRQVKVEEPSRPSASWQNSVSERPPYSYMAMIQFAINSTERKRMTLKDIYTWIEDHFPYFKHIAKPGWKNSIRHNLSLHDMFVRETSANGKVSFWTIHPSANRYLTLDQVFKQQQKRPNPELRRNMTIKTELPLGARRKMKPLLPRVSSYLVPIQFPVNQSLVLQPSVKVPLPLAASLMSSELARHSKRVRIAPKVLLAEEGIAPLSSAGPGKEEKLLFGEGFSPLLPVQTIKEEEIQPGEEMPHLARPIKVESPPLEEWPSPAPSFKEESSHSWEDSSQSPTPRPKKSYSGLRSPTRCVSEMLVIQHRERRERSRSRRKQHLLPPCVDEPELLFSEGPSTSRWAAELPFPADSSDPASQLSYSQEVGGPFKTPIKETLPISSTPSKSVLPRTPESWRLTPPAKVGGLDFSPVQTSQGASDPLPDPLGLMDLSTTPLQSAPPLESPQRLLSSEPLDLISVPFGNSSPSDIDVPKPGSPEPQVSGLAANRSLTEGLVLDTMNDSLSKILLDISFPGLDEDPLGPDNINWSQFIPELQ
notes: also called FKHL16; FOXM1B
binding result: no binding
